From patent US9012420B2, “Aptamer for chymase, and use thereof” (Ribomic Inc., priority 2009, dated 2015)
Oligonucleotides are written 5' to 3', each unit as a sugar letter and its base; * is a phosphorothioate linkage, no mark a phosphodiester; rarer units and linkages stand in square brackets, end groups in braces. Plain capitals give the bases only. r = 2'-OH (RNA); f = 2'-fluoro

Target: T1, chymase (Homo sapiens, UniProt P23946 P23946:22-247)
T1 sequence: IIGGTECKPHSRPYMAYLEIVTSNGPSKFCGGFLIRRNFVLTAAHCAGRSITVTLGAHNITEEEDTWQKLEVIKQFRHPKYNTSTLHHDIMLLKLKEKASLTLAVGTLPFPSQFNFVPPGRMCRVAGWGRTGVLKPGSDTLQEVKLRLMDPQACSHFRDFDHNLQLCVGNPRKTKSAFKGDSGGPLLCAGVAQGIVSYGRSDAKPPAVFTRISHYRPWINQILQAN
Test: SPR; stronger than 40N; solution A
Settings: tags: human skin mast cell, Calbiochem
Experimental: (§1) The binding activities against chymase of the nucleic acids shown by SEQ ID NO: 4-20 and 22-34 were determined by the surface plasmon resonance method using Biacore T100 (manufactured by GE Healthcare). The sensor chip used was the SA chip, which had streptavidin immobilized thereon. Bound thereto was about 1500 RU of a 16-nucleotide Poly dT with biotin bound to the 5' end thereof. […] 20 μL of chymase for analyte, prepared at 0.2 μM, was injected. Solution A was used as a running buffer.

Molecule	binding result
SEQ 16 (ssRNA, 2'-F U and C) RNA: GGGACGGUAGGAAUUCCCAUGACUGAAAAACGUCAGUAAAAUCCGAAAAUCAUAUCAUAGAAGAGCGGCCGC	binds
SEQ 27 (ssRNA, 2'-F U and C) RNA: GGGACGGUAGGAAUUCCGUCAUCGGUUGCAAAUUGAAAAUACAAAACAAGGACAACCAUAGAAGAGCGGCCGC	binds
SEQ 29 (ssRNA, 2'-F U and C) RNA: GGGACGGUAGGAAUUCACGACCGCCCAAAAAAUGGUGACAUUUUAGAAACACCGAACAUAGAAGAGCGGCCGC	binds
SEQ 7 (ssRNA, 2'-F U and C) RNA: GGGACGGUAGGAAUUCACCUUUCCAAUUGUGAAAGAAACACAAAAAGAAAUGACAUCAUAGAAGAGCGGCCGC	binds

Target: T2, chymase (recombinant) (UniProt P23946 P23946:22-247)
T2 sequence: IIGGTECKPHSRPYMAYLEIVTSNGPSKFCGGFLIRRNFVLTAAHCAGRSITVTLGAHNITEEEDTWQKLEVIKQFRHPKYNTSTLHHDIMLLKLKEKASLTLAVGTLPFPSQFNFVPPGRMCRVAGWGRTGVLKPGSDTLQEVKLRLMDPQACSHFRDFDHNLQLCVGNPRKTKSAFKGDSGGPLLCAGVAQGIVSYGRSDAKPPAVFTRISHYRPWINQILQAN
Test: inhibition; SPR ++
Settings: tags: SIGMA, expressed in yeast
Experimental: (§2) By detecting the fluorescence of this AMC, the enzyme activity of chymase can be determined. The assay was performed using a 96-well plate (F16 Black Maxisorp Fluoronunc, manufactured by Nunc), with a reaction mixture volume of 100 μL, in solution C as a buffer solution. First, each nucleic acid was serially diluted to 0.0027-2 μM concentrations in solution C to obtain 50 μL solutions. After 10 μL of the 1 mM substrate prepared in solution C was added thereto, the plate was set to the microplate reader SpectraMax190 (manufactured by Molecular Devices Corporation), and incubated at 37° C. for 5 minutes. Separately, 0.05 μg (or 0.005 μg) of chymase (recombinant, manufactured by SIGMA) was diluted in solution C to obtain a 40 μL chymase solution, and incubated at 37° C. for 5 minutes. The chymase solution was added to the mixture of the nucleic acid and substrate to initiate an enzyme reaction. The final chymase concentration in the reaction mixture was 16.7 nM (or 1.67 nM), the final substrate concentration being 100 μM. The plate containing the reaction mixture was set to the microplate reader SpectraMax190 (manufactured by Molecular Devices Corporation), and examined for time-dependent changes in the fluorescence intensity at 37° C. for 5 minutes (or 30 minutes) (excitation wavelength 380 nm, detection wavelength 460 nm). A linear approximation of the increase in the fluorescence of the AMC released from the substrate by chymase activity was generated, and its slope was taken as the initial velocity […]. For control, samples were treated and analyzed in the same manner in two cases: use of a 30N or 40N (a nucleotide of 30 or 40 consecutive bases represented by N; N is A, G, C or T) nucleic acid pool (negative control), and use of chymostatin, a known chymotrypsin-like serine protease inhibitor (positive control). Taking the initial reaction velocity without the nucleic acid and inhibitor (V_0) as a 100% enzyme activity, the inhibitory rate of each test substance was calculated using the following equation: […]
All nucleic acids of SEQ ID NO: 58-68 were prepared by chemical synthesis. Whether these nucleic acids are bound to chymase was assessed by surface plasmon resonance method in the same manner as in Example 4. The inhibitory activity on chymase was measured in the same manner as in Example 3.

Molecule	IC50
GGGUUAGAUAGAGAUAAAAACCC (ssRNA, 2'-F pyrimidines) [SEQ 59]	38 nM
GGGUUAGAUAGAGCUAAAAACCC (ssRNA, 2'-F pyrimidines) [SEQ 60]	26 nM
GGGUUAGAUAGAUUUAAAAACCC (ssRNA, 2'-F pyrimidines) [SEQ 61]	23 nM
GGGUUGGAUAGAGUUAAGAACCC (ssRNA, 2'-F pyrimidines) [SEQ 62]	29 nM
GCUACAGAUAGAGUUAAAGUAGC (ssRNA, 2'-F pyrimidines) [SEQ 63]	23 nM
GUCACAGAUAGAGUUAAAGUGAC (ssRNA, 2'-F pyrimidines) [SEQ 64]	20 nM
GGCAGAUAGAGUUAAAGCC (ssRNA, 2'-F pyrimidines) [SEQ 65]	56 nM

Target: T3, chymase (Homo sapiens, UniProt P23946)
T3 sequence (P23946 22-247): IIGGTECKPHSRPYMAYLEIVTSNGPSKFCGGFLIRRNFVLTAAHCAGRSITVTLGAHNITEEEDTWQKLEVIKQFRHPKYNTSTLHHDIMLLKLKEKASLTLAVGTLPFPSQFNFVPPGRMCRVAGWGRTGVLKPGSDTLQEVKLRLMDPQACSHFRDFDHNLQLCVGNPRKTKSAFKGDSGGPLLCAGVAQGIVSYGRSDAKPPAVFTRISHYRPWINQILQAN
Test: Surface plasmon resonance (Biacore T100), aptamer immobilized on SA chip, chymase injected as analyte
Type: binding
Settings: Table 1; about 1000 RU nucleic acid immobilized, chymase 0.2 μM analyte, running buffer solution A; compared with 40N
Experimental: Binding strength is measured using Biacore T100 (manufactured by GE Healthcare). In a method of measurement, the aptamer is first immobilized onto a sensor chip, the amount immobilized being about 1000 RU. 20 μL of a chymase solution for analyte, prepared at 0.2 μM, is injected, and the binding of chymase to the aptamer is detected. An RNA comprising a random nucleotide sequence of 30 or 40 nucleotides is used as a negative control.
as §1, with “5′” for “5'”
The binding activities against chymase of the nucleic acids shown by SEQ ID NO: 38-48 were evaluated by the surface plasmon resonance method. In the evaluations for SEQ ID NO: 38-48, measurements were taken in the same manner as Example 1. Solution C was used as a running buffer.

Molecule	Binding activity as determined using Biacore
GGGACGGUAGGAAUUCUGCCGCAACCCAAUGAAAACGAAGAUAGAGAUAAAUCGAACAUAGAAGAGCGGCCGC (nucleic acid, aptamer) rGrGrGrAfCrGrGfUrArGrGrArAfUfUfCfUrGfCfCrGfCrArAfCfCfCrArAfUrGrArArArAfCrGrArArGrAfUrArGrArGrAfUrArArAfUfCrGrArAfCrAfUrArGrArArGrArGfCrGrGfCfCrGfC	equivalent binding activity compared with 40N

Target: T2, chymase (recombinant)
Test: inhibition; SPR +
Settings: tags: SIGMA, expressed in yeast
Experimental: as §2, with “Here, Suc is a protecting succinyl group, and MCA is a 4-methylcoumaryl-7-amide group; upon cleavage of the C-terminal side of phenylalanine, AMC (7-amino-4-methyl-coumarine) is released. By” for “By”

Molecule	IC50
SEQ 20 (ssRNA, 2'-F pyrimidines) RNA: GGGACGGUAGGAAUUCAAAAUCAGCUGAUUUGUAAUUUUUUUACACAGGCAAAACACAUAGAAGAGCGGCCGC	282 nM
SEQ 22 (ssRNA, 2'-F pyrimidines) RNA: GGGACGGUAGGAAUUCCCGACACAAAAUGUGUGAUUAAUUCCGAACAACAAAGUAACAUAGAAGAGCGGCCGC	105 nM
SEQ 28 (ssRNA, 2'-F pyrimidines) RNA: GGGACGGUAGGAAUUCAAUUUCUUUCUAUUCUCACCUGAGUAUAUCAGGCACAGUACAUAGAAGAGCGGCCGC	45 nM
SEQ 31 (ssRNA, 2'-F pyrimidines) RNA: GGGACGGUAGGAAUUCGUCCCUCAUGUCUAUUUUGCAGAUAGACUUAAAGCAAACAUAGAAGAGCGGCCGC	155 nM
SEQ 32 (ssRNA, 2'-F pyrimidines) RNA: GGGACGGUAGGAAUUCGUCCUCAUGUCUAUUUUGCAGAUAGACUUAAAGCAAACAUAGAAGAGCGGCCGC	235 nM
SEQ 33 (ssRNA, 2'-F pyrimidines) RNA: GGGACGGUAGGAAUUCCUGUCUUUUCCCACGCAACAAAUUACAGAGCUUUGCAAAACAUAGAAGAGCGGCCGC	145 nM
SEQ 34 (ssRNA, 2'-F pyrimidines) RNA: GGGACGGUAGGAAUUCUGCCGCAACCCAAUGAAAACGAAGAUAGAGAUAAAUCGAACAUAGAAGAGCGGCCGC	137 nM

Target: T2, chymase (recombinant)
Test: inhibition; SPR ++
Settings: tags: SIGMA, expressed in yeast
Remark: another data set of the same source
Experimental: as §2, with “Here, Suc is a protecting succinyl group, and MCA is a 4-methylcoumaryl-7-amide group; upon cleavage of the C-terminal side of phenylalanine, AMC (7-amino-4-methyl-coumarine) is released. By” for “By”
Chymase inhibitory activity was determined in the same manner as Example 3.

Molecule	IC50
GGUUCUACAGAUAGAGAUAAAGUAGAACC (ssRNA, 2'-F pyrimidines) [SEQ 49]	117 nM
GGCAUUCUACAGAUAGAGAUAAAGUAGAAUUUAAC (ssRNA, 2'-F pyrimidines) [SEQ 50]	138 nM
CGUUACAUAAUGUAUAUACCAGGGUAACUAAACAUAGAAGAGCGG (ssRNA, 2'-F pyrimidines) [SEQ 51]	24 nM
GGGUAACUAUGGUUAGAUAGAGUUAAAAACCAUAGAAGACCC (ssRNA, 2'-F pyrimidines) [SEQ 53]	66 nM
UAACUAUGGUUAGAUAGAGUUAAAAACCAUAGAAGA (ssRNA, 2'-F pyrimidines) [SEQ 54]	51 nM
CUAUGGUUAGAUAGAGUUAAAAACCAUAG (ssRNA, 2'-F pyrimidines) [SEQ 55]	55 nM
GCAUUUGAGAUAGAUUUAAACAAACGC (ssRNA, 2'-F pyrimidines) [SEQ 57]	99 nM
